Assay results taken from paper PMC8131363 (Scientific Reports, 2021).
Counter-ions that a name gives are not always drawn. Starred links: 1 amine or outer side, 2 acyl side, 3 side chain; linkers in the order of their positions; H or OH if unused. Non-standard residues stand in square brackets, D forms with d. No end group written: not given here. γGlu = O=C(O)[C@H](CCC(=O)[*:2])N[*:1]; βAsp = O=C(O)[C@H](CC(=O)[*:2])N[*:1]; Abu = CC[C@H](N)C(=O)O

Key:
[1] = target: domestic cat Calcium Sensing Receptor (cCaSR) (Felis catus)
cCaSR [2] = target: T1, cCaSR (Felis catus, UniProt C7FF08); assay: cCaSR PAM luminescence assay, double injection with 0.5 mM CaCl2, HEK293/T-REx/natClytin-cCaSR; details: Supplementary Table I, PAM assay, dash = no activity
T1 sequence (C7FF08 1-1081): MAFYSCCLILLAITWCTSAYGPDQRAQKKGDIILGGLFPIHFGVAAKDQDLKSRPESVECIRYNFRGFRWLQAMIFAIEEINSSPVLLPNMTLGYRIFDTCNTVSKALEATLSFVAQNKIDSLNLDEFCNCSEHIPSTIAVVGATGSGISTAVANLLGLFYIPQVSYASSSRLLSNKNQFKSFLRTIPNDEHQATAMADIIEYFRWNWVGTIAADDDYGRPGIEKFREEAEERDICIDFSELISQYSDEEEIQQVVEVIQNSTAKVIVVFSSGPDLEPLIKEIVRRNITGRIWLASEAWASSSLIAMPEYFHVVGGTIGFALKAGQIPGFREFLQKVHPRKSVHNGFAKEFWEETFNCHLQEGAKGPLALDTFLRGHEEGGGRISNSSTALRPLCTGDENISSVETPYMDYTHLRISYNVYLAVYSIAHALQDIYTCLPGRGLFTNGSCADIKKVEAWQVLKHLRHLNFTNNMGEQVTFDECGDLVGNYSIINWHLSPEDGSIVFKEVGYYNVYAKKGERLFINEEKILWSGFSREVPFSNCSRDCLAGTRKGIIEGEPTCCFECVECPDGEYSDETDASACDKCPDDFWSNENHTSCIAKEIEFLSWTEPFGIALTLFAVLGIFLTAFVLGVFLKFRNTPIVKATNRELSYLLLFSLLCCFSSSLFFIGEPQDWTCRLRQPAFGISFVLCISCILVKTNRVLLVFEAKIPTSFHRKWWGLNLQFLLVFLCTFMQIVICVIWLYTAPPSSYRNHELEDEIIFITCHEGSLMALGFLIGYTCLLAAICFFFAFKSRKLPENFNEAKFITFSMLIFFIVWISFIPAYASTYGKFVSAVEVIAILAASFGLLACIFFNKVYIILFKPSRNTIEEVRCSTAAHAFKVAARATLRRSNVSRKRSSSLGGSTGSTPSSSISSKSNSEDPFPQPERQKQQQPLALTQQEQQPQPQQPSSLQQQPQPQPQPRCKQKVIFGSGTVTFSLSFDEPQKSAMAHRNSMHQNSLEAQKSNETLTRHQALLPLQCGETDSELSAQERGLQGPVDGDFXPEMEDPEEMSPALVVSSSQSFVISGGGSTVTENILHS

cCaSR [3] = target: T1, cCaSR
cCaSR [4] = target: T1, cCaSR; assay: cell-based; details: agonist assay
[5] = EC50 (M), stable inducible cCaSR line, > 0.01 M = maximal response not reached
[6] = EC50 Ago (M), Supplementary Table I, > 0.01 M = maximal response not reached
[7] = cCaSR activity, stable inducible cCaSR line, at least three wells

| Compound | EC50 of agonist activity, luminescence (natClytin) in HEK T-Rex/natClytin cells inducibly expressing cCaSR, calcium-free buffer; activity grade + [1] [mM] | EC50 of agonist activity, luminescence (natClytin) in HEK T-Rex/natClytin cells inducibly expressing cCaSR, calcium-free buffer; activity grade ++ [1] [mM] | further results |
| --- | --- | --- | --- |
| Poly-L-lysine (peptide) | > 10 |  |  |
| γ-Glu-Abu (peptide) | > 10 |  |  |
| C[Se]C[C@H](N)C(=O)O [Se-(Methyl)selenocysteine] |  |  | EC50 PAM (M) (cCaSR [2]): -; agonist activity on cCaSR (in words) (cCaSR [3]): agonist activity; EC50 (cCaSR [4]; [5]): 0.00447 M; EC50 (cCaSR [4]; [6]): 0.00447 M; EC50 (cCaSR [4]; [7]): 0.001 to 0.01 M |
| S-(2-Hydroxyethyl)glutathione (peptide) |  | 2.11 |  |
| [γGlu]-Glu-Gln | > 10 |  |  |
| [γGlu]-Gln | > 10 |  |  |
| NC(=O)[C@@H](N)CCC(=O)O [L-Isoglutamine] |  |  | EC50 PAM (M) (cCaSR [2]): -; agonist activity on cCaSR (in words) (cCaSR [3]): agonist activity; EC50 (cCaSR [4]; [7]): > 0.01 M |
| COC(=O)C(N)CC(=O)O (racemic) [DL-Aspartic acid α-methyl ester] |  |  | EC50 PAM (M) (cCaSR [2]): -; agonist activity on cCaSR (in words) (cCaSR [3]): agonist activity; EC50 (cCaSR [4]; [7]): > 0.01 M |
| [γGlu]-[Abu]-Gly |  | 2.65 |  |
| [γGlu]-Leu | > 10 |  |  |
| COC(=O)C[C@H](N)C(=O)O [L-Aspartic acid β-methyl ester hydrochloride] |  |  | EC50 PAM (M) (cCaSR [2]): -; agonist activity on cCaSR (in words) (cCaSR [3]): agonist activity; EC50 (cCaSR [4]; [7]): > 0.01 M |
| [βAsp]-Gly | > 10 |  |  |
| [γGlu]-Glu |  | 2.07 |  |
| NC[C@@H]1O[C@H](O[C@H]2[C@@H](O)[C@H](O[C@@H]3[C@@H](O)[C@H](N)C[C@H](N)[C@H]3O[C@H]3O[C@H](CO)[C@@H](O)[C@H](O)[C@H]3N)O[C@@H]2CO)[C@H](N)[C@@H](O)[C@@H]1O [Paromomycin sulfate salt, reference compound] |  |  | EC50 PAM (M) (cCaSR [2]): -; EC50 (cCaSR [4]; [5]): 0.00108 M; EC50 (cCaSR [4]; [6]): 0.00108 M |
| [γGlu]-Glu-Glu |  | 2.35 |  |

The next lines start with results.

| EC50 of agonist activity, luminescence (natClytin) in HEK T-Rex/natClytin cells inducibly expressing cCaSR, calcium-free buffer; activity grade + [1] [mM] | EC50 of agonist activity, luminescence (natClytin) in HEK T-Rex/natClytin cells inducibly expressing cCaSR, calcium-free buffer; activity grade ++ [1] [mM] | Compound | further results |
| --- | --- | --- | --- |
| > 10 |  | [βAsp]-Ala |  |
|  | 6.39 | Glutathione (peptide) |  |
|  | 4.42 | S-Methylglutathione (peptide) |  |
| 3.15 |  | [βAsp]-Leu |  |
| > 10 |  | [γGlu]-Cys |  |
|  | 3.74 | 3-Glutathionyl-S-methylindole (peptide) |  |
|  | 4.2 | γ-D-Glu-Trp (peptide) |  |
| > 10 |  | [βAsp]-Phe |  |
|  | 2.32 | γ-Glu-Phe (peptide) |  |
|  | 3.88 | [γGlu]-Tyr |  |
